The text below walks through data of patent US11857697B2, “Compositions and methods for obtaining 3-dimensional lung-like epithelium and related uses thereof” (THE REGENTS OF THE UNIVERSITY OF MICHIGAN, priority 2017, dated 2024).

The subject of experiment [1] is hPSC-derived foregut spheroids / HLOs. Put plainly: hPSC-derived foregut spheroid / human lung organoid (HLO) culture: growth and phenotype. In kind it is cell-based. The protocol: Given the robustness by which 3F media supported mouse and human lung bud progenitor growth and identity, experiments sought to determine whether these culture conditions could promote a distal epithelial lung progenitor-like population from hPSCs. NKX2.1+ ventral foregut spheroids were generated as previously described (Dye et al., 2016a; 2015), and were cultured in a droplet of Matrigel and overlaid with media containing 3F (FGF7, CHIR-99021, RA). Spheroids were considered to be “day 0” on the day they were placed in Matrigel. […] Epithelial structures grew first as cystic structures over the course of 2 weeks, followed by a period of epithelial folding that occurred between weeks 3-4 (FIG. 7A; FIG. 8C-D). Around 5-6 weeks in culture, the epithelial structures began forming bud-like structures that resembled human fetal epithelial distal bud tips that underwent bifurcations (FIG. 7A-B; FIG. 8D—bottom row). HLOs were passaged by gently removing Matrigel and replating in a fresh droplet while preserving structural integrity. In this way, HLOs were able to grow for over 16 weeks in culture while retaining their original shape. HLOs could also be passaged using mechanical shear through a 27-gauge needle, followed by embedding in fresh Matrigel and 3F media (FIG. 8E). Following passage, HLOs robustly re-established many small cysts that were expanded and serially passaged every 7-10 days many times (FIG. 8F).
The University of Michigan Human Pluripotent Stem Cell Research Oversight (hPSCRO) Committee approved all experiments using human embryonic stem cell (hESC) lines. hESC line UM63-1 (NIH registry #0277) was obtained from the University of Michigan and hESC line H9 (NIH registry #0062) was obtained from the WiCell Research Institute. ES cell lines were routinely karyotyped to ensure normal karyotype and ensure the sex of each line (H9-XX, UM63-1-XX). Cells are monitored for mycoplasma infection monthly using the MycoAlert Mycoplasma Detection Kit (Lonza). […]

For experiment [2], the system named is E13.5 mouse distal epithelial lung buds. Description: Isolated E13.5 mouse distal lung bud culture in Matrigel droplet: growth/expansion. The class given is cell-based. As for the experimental part: Isolated mouse buds were cultured in 4-6 μl droplets of matrigel, covered with media, and kept at 37 degrees Celsius with 5% Carbon Dioxide. Isolated human fetal lung buds were cultured in 25-50 μl droplets of matrigel, covered with media, and kept at 37 degrees Celsius with 5% Carbon Dioxide.
Mouse buds were dissected from E13.5 embryos. For experiments using Sox9CreER; Rosa^Tomato/Tomato mice, 50 ug/g of tamoxifen was dissolved in corn oil and given by oral gavage on E12.5, 24 hours prior to dissection. Briefly, in sterile environment, whole lungs were placed in 100% dispase (Corning Cat#354235) on ice for 30 minutes. Lungs were then transferred using a 25 uL wiretrol tool (Drummond Scientific Cat#S5-000-2050) to 100% FBS (Corning Cat#35-010-CV) on ice for 15 minutes, and then transferred to a solution of Dulbecco's Modified Eagle Medium: Nutrient Mixture F12 (DMEM/F12, ThermoFisher SKU#12634-010) with 10% FBS and 1× Pennicillin-Streptomycin (ThermoFisher Cat#15140122) on ice. To dissect buds, a single lung or lung lobe was transferred by wiretrol within a droplet of media to a 100 mm sterile petri dish. Under a dissecting microscope, the mesenchyme was carefully removed and epithelial bud tips were torn away from the bronchial tree using tungsten needles (Point Technologies, Inc.). Care was taken to remove the trachea and any connective tissue from dissected lungs. Isolated bud tips were picked up using a p20 pipette and added to an eppendorf tube with cold Matrigel (Corning Ref#354248) on ice. The buds were picked up in a p20 pipette with 4-6 uL of Matrigel and plated on a 24-well tissue culture well (ThermoFisher Cat#142475). The plate was moved to a tissue culture incubator and incubated for 5 minutes at 37 degrees Celsius and 5% CO2 to allow the Matrigel droplet to solidify. 500 uL of media was then added to the dish in a laminar flow hood. Media was changed every 2-3 days.
All mouse bud, human fetal bud, and hPSC-derived human lung organoids were grown in low-serum basal media (basal media) with added growth factors. Basal media consisted of Dulbecco's Modified Eagle Medium: Nutrient Mixture F12 (DMEM/F12, ThermoFisher SKU#12634-010) supplemented with 1× N2 supplement (ThermoFisher Catalog#17502048) and […] B27 supplement (ThermoFisher Catalog#17504044), along with 2 mM Glutamax (ThermoFisher Catalog#35050061), 1× Pennicillin-Streptomycin (ThermoFisher Cat#15140122) and 0.05% Bovine Serum Albumin (BSA; Sigma product# A9647). BSA was weighed and dissolved in DMEM F/12 media before being passed through a SteriFlip 0.22 uM filter (Millipore Item# EW-29969-24) and being added to basal media. Media was stored at 4 degrees Celsius for up to 1 month. On the day of use, basal media was aliquoted and 50 ug/mL Ascorbic acid and 0.4 uM Monothioglycerol was added. […]

Where [3] appears, read: proportion of organoids in the medium.

B1: Recombinant Human Fibroblast Growth Factor 7 (protein, UniProt P21781 32-194, looked up)
Fibroblast growth factor 7: CNDMTPEQMATNVNCSSPERHTRSYDYMEGGDIRVRRLFCRTQWYLRIDKRGKVKGTQEMKNNYNIMEIRTVAVGIVAIKGVESEFYLAMNKEGKLYAKKECNEDCNFKELILENHYNTYASAKWTHNGGEMFVALNQKGIPVRGKKTKKEQKTAHFLPMAIT
notes: Recombinant human growth factor from R&D systems, used at 10 ng/mL unless otherwise noted
On to B1, for which the “HLO morphology after switch to FGF7 only” value in experiment [1] (42 days 3F then 26 days FGF7 only, compared to 3F HLOs) is recorded as “lost the peripheral bud-like regions”. Also, in experiment [1] (setting [3]), the “HLOs with 'dense' phenotype” value came to 90% and the “HLOs with clear epithelial phenotype” value is on record as 5%. Further, the Bud growth entry in experiment [2] (FGF7 1 ng/mL, 3 and 5 days in vitro) was “very modest growth”. The Bud growth entry in experiment [2] (FGF7, all other conditions above 1 ng/mL, 5 days in vitro) is “robust growth”. The “Growth, expansion and survival of isolated buds” value in experiment [2] (individual growth factor in basal media, FGF7 10 ng/mL, up to two weeks) is “promoted growth, expansion a survival of isolated buds for up to two weeks”.
